This is an account of results in PMC6389942.

The test concerns the target HA-Cep57 (centrosomal protein of 57 kDa, full length), Q86XR8-1. The test is described as follows: co-IP (FLAG IP, HA-Cep57 western blot band quantification). As to conditions: HEK293T cells; three independent experiments; parent: est. 1.0; read off a plot.

HA-Cep57 (centrosomal protein of 57 kDa, full length), Q86XR8-1, sequence (Q86XR8 whole entry): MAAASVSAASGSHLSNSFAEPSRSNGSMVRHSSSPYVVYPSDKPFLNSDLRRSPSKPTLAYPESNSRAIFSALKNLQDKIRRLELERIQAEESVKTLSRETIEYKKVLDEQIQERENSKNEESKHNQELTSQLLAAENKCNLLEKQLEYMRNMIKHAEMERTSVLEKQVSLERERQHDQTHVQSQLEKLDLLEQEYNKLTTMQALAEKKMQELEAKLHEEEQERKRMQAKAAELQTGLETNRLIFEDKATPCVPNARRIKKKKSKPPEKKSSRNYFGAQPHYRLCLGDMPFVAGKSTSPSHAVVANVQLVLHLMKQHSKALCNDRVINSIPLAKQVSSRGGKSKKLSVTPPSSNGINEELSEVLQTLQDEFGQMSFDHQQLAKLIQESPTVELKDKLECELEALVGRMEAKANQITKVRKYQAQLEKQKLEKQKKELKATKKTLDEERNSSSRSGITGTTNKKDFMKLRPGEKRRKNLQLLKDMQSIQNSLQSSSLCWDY

For the substance FLAG-PCNT 2536–3336 WT K3154del, the response amounted to 0.11.
